The results in this text go back to CN117567617A.

By Kd is commonly meant the free concentration of one partner at which half of the binding sites on the other are occupied at equilibrium, for simple one-to-one binding. Read a high Kd as lower affinity.

This assay has as its target CLDN18.2 (species not stated). Put plainly: affinity measurement, method not described.

With “IMAB362 (Zolbetuximab), positive control antibody”, the Kd stood at 4.17 nM.
